From patent publication US20170037136A1 (Janssen / Centocor, published 2017)

T1: shCD154-his (soluble human CD154, His6 fusion) (human, UniProt P29965 113-261)
T1 sequence: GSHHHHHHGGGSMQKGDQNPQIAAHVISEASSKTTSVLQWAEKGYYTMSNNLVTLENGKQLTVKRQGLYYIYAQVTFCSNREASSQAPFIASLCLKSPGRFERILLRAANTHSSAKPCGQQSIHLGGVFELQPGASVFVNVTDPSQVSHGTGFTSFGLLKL

T2: human CD154 endogenously expressed on D1.1 Jurkat cells (human, UniProt P29965 1-261)
T2 sequence: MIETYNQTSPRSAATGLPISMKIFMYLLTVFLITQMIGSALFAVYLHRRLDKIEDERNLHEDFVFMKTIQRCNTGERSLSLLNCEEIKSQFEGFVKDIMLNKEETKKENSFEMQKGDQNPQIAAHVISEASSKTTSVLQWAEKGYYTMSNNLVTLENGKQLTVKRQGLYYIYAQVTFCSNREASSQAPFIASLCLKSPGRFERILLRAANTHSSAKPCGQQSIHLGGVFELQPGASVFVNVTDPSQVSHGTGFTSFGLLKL


Columns and labels:
[1] = biological target: T1, shCD154-his (soluble human CD154, His6 …); test: cell-based or functional assay
[2] = biological target: T1, shCD154-his (soluble human CD154, His6 …); test: SPR (ProteOn XPR36), antibody captured via anti-human IgG Fc, shCD154-his analyte, 25 C, 1:1 Langmuir model
Method: (§1) Affinity measurements using Surface Plasmon Resonance (SPR) were performed using a ProteOn XPR36 system (BioRad). […] Approximately 4700 RU (response units) of test antibodies were immobilized. The kinetic experiments were performed at 25° C. in running buffer (DPBS+0.03% polysorbate P20+100 μg/ml BSA). […] The association phase was monitored for 3 minutes at 50 μL/min followed by 15 minutes of buffer flow (dissociation phase). The chip surface was regenerated with two 18 second pulses of 100 mM H₃PO₄ (Sigma, Cat#7961) at 100 μL/min.
(§2) The collected data were processed using ProteOn Manager software. First, the data was corrected for background using inter-spots. Then, double reference subtraction of the data was performed by using the buffer injection for analyte injections. The kinetic analysis of the data was performed using a Langmuir 1:1 binding model.
(§3) Affinity measurements were done using ProteOn as described in Example 1.

[3] = biological target: T1, shCD154-his (soluble human CD154, His6 …); test: SPR (ProteOn XPR36), protocols of Example 1; analyte not given
Method: as §1, §2

[4] = biological target: T2, human CD154 endogenously expressed on …; test: cell-based or functional assay
[5] = biological target: T3, shCD154-ILZ (soluble human CD154, leucine zipper fusion) (human); test: cell-based or functional assay
[6] = biological target: T1, shCD154-his (soluble human CD154, His6 …); test: SPR (ProteOn XPR36) as in Example 1, human CD154; mean ± SD, n = 4
Method: as §1, §2

[7] = biological target: T1, shCD154-his (soluble human CD154, His6 …); test: SPR (ProteOn XPR36), antibody captured via anti-human IgG Fc, shCD154-his analyte, 25 C, two-states binding model
Method: as §1, §3

[8] = biological target: T3, shCD154-ILZ (soluble human CD154, …); test: cell-based or functional assay; remark: listed apart in the source

Binder | Kd [2] | koff [2] | kon [2] | NF-κB SEAP reporter gene assay; IC50 (nM); D1.1 Jurkat [4] | NF-κB SEAP reporter gene assay; IC50 (nM); shCD154-ILZ [5] | further results
C4LB89 (antibody, human IgG2, kappa, IgG2sigma/kappa; also called VH C4LH165; VL C4LL49) heavy: QVQLVQSGAEVKKPGSSVKVSCKASGGTFSSYGISWVRQAPGQGLEWMGWISPIFGNTNYAQKFQGRVTITADESTSTAYMELSSLRSEDTAVYYCARSRYYGDLDYWGQGTLVTVSSASTKGPSVFPLAPCSRSTSESTAALGCLVKDYFPEPVTVSWNSGALTSGVHTFPAVLQSSGLYSLSSVVTVPSSNFGTQTYTCNVDHKPSNTKVDKTVERKCCVECPPCPAPPAAASSVFLFPPKPKDTLMISRTPEVTCVVVDVSAEDPEVQFNWYVDGVEVHNAKTKPREEQFNSTFRVVSVLTVLHQDWLNGKEYKCKVSNKGLPSSIEKTISKTKGQPREPQVYTLPPSREEMTKNQVSLTCLVKGFYPSDIAVEWESNGQPENNYKTTPPMLDSDGSFFLYSKLTVDKSRWQQGNVFSCSVMHEALHNHYTQKSLSLSPGK light: not shown | 0.235 nM | 0.00038 s⁻¹ | 1.61e+06 M⁻¹ s⁻¹ |  |  | NF-κB SEAP reporter gene assay; IC50 [1]: 6.22 nM
C4LB119 (antibody, V domains shown, IgG2sigma) VH: QVQLVQSGAEVKKPGSSVKVSCKASGGTFSSYYISWVRQAPGQGLEWMGAIDPYFGYANYAQKFQGRVTITADESTSTAYMELSSLRSEDTAVYYCARTGLNYGGFDYWGQGTLVTVSS VL: EIVLTQSPATLSLSPGERATLSCRASQSVSSYLAWYQQKPGQAPRLLIYDASNRATGIPARFSGSGSGTDFTLTISSLEPEDFAVYYCQQRSNWPLTFGQGTKVEIK |  |  |  |  |  | Kd [3]: 4.79 nM; koff [3]: 0.0088 s⁻¹; kon [3]: 1.84e+06 M⁻¹ s⁻¹
C4LB189 (antibody, V domains shown, IgG2sigma effector silent mAb; lambda VL; also called VH C4LH240; VL C4LL116) VH: QVQLVQSGAEVKKPGASVKVSCKASGYTFAAYYIHWVRQAPGQGLEWMGRINPDSGGTDYAQRFQGRVTMTRDTSISTAYMELSRLRSDDTAVFYCARDWNYYDGSGYFGPGYYGLDVWGQGTTVTVSS VL: SYELTQPPSVSVSPGQTASVTCSGDKLGDKYVCWYQRKPGQSPVLVIYQDRKRPSGIPERFSGSNSGNTATLTISGTQAIDEADYYCQAWDSGTVVFGRGTKLTVL | 0.581 nM | 0.000206 s⁻¹ | 355000 M⁻¹ s⁻¹ | 2.06 nM | 1.63 nM | 
C4LB191 (antibody, V domains shown, IgG2sigma effector silent mAb; lambda VL; also called VH C4LH242; VL IAPL39) VH: QVQLVQSGAEVKKPGASMKVSCKASGYTFTDYYIHWVRQAPGQGLEWVGRFNPNSGDTNGAQKFQGRVTMTRDTSISTAYMELTRLRSDDTAVYHCAREGELAGIFFDYWGQGTLVTVSS VL: SYELTQPPSVSVSPGQTASITCSGDKLGDKYVSWNHQKPGQSPVLVIYQDRKRPSGIPERFSGSNSGNTATLTISGTQAMDEADYYCQAWDSSTVVFGGGTKLTVL | 0.0313 nM | 0.000176 s⁻¹ | 5.62e+06 M⁻¹ s⁻¹ |  |  | 
C4LB237 (antibody, V domains shown, C4LB89 variable regions cloned as wild-type IgG1/kappa; also called C4LBB237) VH: QVQLVQSGAEVKKPGSSVKVSCKASGGTFSSYGISWVRQAPGQGLEWMGWISPIFGNTNYAQKFQGRVTITADESTSTAYMELSSLRSEDTAVYYCARSRYYGDLDYWGQGTLVTVSS VL: DIQMTQSPSSLSASVGDRVTITCRASQSISSYLNWYQQKPGKAPKLLIYYANSLQSGVPSRFSGSGSGTDFTLTISSLQPEDFATYYCQQSDSIPWTFGQGTKVEIK |  |  |  |  |  | NF-κB SEAP reporter gene assay; IC50 [1]: 2.56 nM; Kd [6]: 0.0236 nM; koff [6]: 6.05e-05 s⁻¹; kon [6]: 2.59e+06 M⁻¹ s⁻¹
C4LB83 (antibody, V domains shown, IgG2sigma) VH: QVQLVQSGAEVKKPGSSVKVSCKASGGTFSSYAISWVRQAPGQGLEWMGWIIPIFGNTNYAQKFQGRVTITADESTSTAYMELSSLRSEDTAVYYCAREKDFRGYTKLDYWGQGTLVTVSS VL: DIQMTQSPSSLSASVGDRVTITCRASQSINNWLNWYQQKPGKAPKLLIYAASSLQSGVPSRFSGSGSGTDFTLTISSLQPEDFATYYCQQSFSFPYTFGQGTKVEIK |  |  |  |  |  | Kd [3]: 2.23 nM; koff [3]: 0.0047 s⁻¹; kon [3]: 2.1e+06 M⁻¹ s⁻¹
C4LB150 (antibody, V domains shown, IgG2sigma effector silent mAb; lambda VL (OmniRat antibodies were cloned as IgG2sigma/lambda); also called VH C4LH201; VL C4LL82) VH: QLQLQESGPGLVKPSETLSLTCTVSGGSISSYSFYWGWIRQPPGQGLEWIGSLYYSGSTYYNPSLKSRATMSVVTSKTQFSLNLNSVTAADTAVYYCARLQLGTTTDYFDHWGQGTLVTVSS VL: SYELTQPPSVSVSPGQTASITCSGDELGDKFACWYQQKPGQSPVLVIWQENKRPSGIPERFSGSNSGNTATLTISGTQAMDEADYYCQAWDSDTAVFGGGTKLTVL |  |  |  | 3.57 nM | 4.95 nM | Kd [7]: 2.72 nM; koff [7]: 0.00617 s⁻¹; kon [7]: 2.27e+06 M⁻¹ s⁻¹
C4LB199 (antibody, V domains shown, IgG2sigma effector silent mAb; lambda VL; also called VH C4LH250; VL C4LL125) VH: QVQLQESGPGLVKPSETLSLTCTVSGDSISSFIYYWGWIRQPPGKGLDWVGCIYSSGGTYYNPSLKSRVTISVDTSKNQFSLKLPSVTAADTAVYYCARLWLGTTTDYFDYWGQGTLVTVSS VL: SYELTQPPSVSVSPGQTVSITCSGDKLGDKFACWYQQKPGQSPVVVIYQDDKRPSGIPERFSGSTSGNTATLTISGTQAMDEADYYCQAWDSNTVVFGGGTKLTVL | 0.253 nM | 0.000404 s⁻¹ | 1.6e+06 M⁻¹ s⁻¹ | 1.21 nM | 1.09 nM | 
C4LB94 (antibody, V domains shown, IgG2sigma, kappa; also called VH C4LH99; VL PH9L2) VH: QVQLVQSGAEVKKPGSSVKVSCKASGGTFSSYAISWVRQAPGQGLEWMGGISPYFGNTNYAQKFQGRVTITADESTSTAYMELSSLRSEDTAVYYCARDTGWVGAFYLDYWGQGTLVTVSS VL: not shown |  |  |  | 0.13 nM | 4.37 nM | Kd [7]: 2.09 nM; koff [7]: 0.00329 s⁻¹; kon [7]: 1.58e+06 M⁻¹ s⁻¹
C4LB5 (antibody, V domains shown, Phage-derived; IgG2sigma effector silent mAb (V234A, G237A, P238S, H268A, V309L, A330S, P331S), kappa; also called VH C4LH12; VL C4LL8) VH: QVQLVQSGAEVKKPGSSVKVSCKASGGTFSSYAISWVRQAPGQGLEWMGGIIPIFGTANYAQKFQGRVTITADESTSTAYMELSSLRSEDTAVYYCARGASVWDGPAEVFDYWGQGTLVTVSS VL: not shown | 0.312 nM | 0.000178 s⁻¹ | 570000 M⁻¹ s⁻¹ | 1.55 nM | 0.54 nM | B cell activation assay; IC50 (nM); shCD154-ILZ/cyno B cell [8]: 5.35 nM; B cell activation assay; IC50 (nM); shCD154-ILZ/human B cells [8]: 2.74 nM
